Experimental data published in patent US20150197561A1 (ONCOMED PHARMACEUTICALS, published 2015).
Like-named read-outs stand apart in the source and are kept apart here.

B1: 64R1B IgG2 antibody (antibody, V domains shown)
VH: QVQLQESGPGLVKPSGTLSLTCTVSGDSISSSNWWSWVRQPPGQGLEWIGEIFHGENTNYNPSLKSRVTISVDKSKNQISLNLTSATAADTAVYYCARNPGIGAAKFDSWGQGTLVTVSS
VL: DIVMTQTPLSLSVTPGQPASISCKSSQSLLHSDGKTYLYWYLQKPGQPPQLLIYEVSNRFSGVPDRFSGSGSGTDFTLKISRVEAEDVGVYYCMQHIDFPFTFGQGTKLEIKR
notes: Human IgG2 / kappa, expressed in CHO cells; also called antibody 64R1B; ATCC PTA-10469
B2: antibody 64M51 (antibody, mouse IgG1, kappa, V domains shown)
VH: QVQLKQSGAELVRPGTSVKLSCKTSGYIFTSYWIHWVKQRSGQGLEWIARIYPGIGSTYYNEKFKDKATLTADKSSSTAYMQLSSLKSEDSAVYFCAKNGGFFDYWGQGTTLTVSS
VL: DIVLTQSPASLAVSLGQRATISCRASESVDSYGNSFMHWYQQKPGQPPKLLIYRASNLESGIPARFSGSGSRTDFTLTINPVEADDVATYYCQQSNEDPWTFGGGTKLEIKR
notes: Mouse hybridoma monoclonal raised against mouse Jagged1 ECD-His; also called anti-Jagged 64M51; ATCC PTA-10468
B3: Fab 64R7 (Fab, V domains shown)
VH: QVQLVESGGGVVQPGRSLRLSCAASGFTFSSYAMHWVRQAPGKGLEWVAVISYDGSNKYYADSVKGRFTISRDNSKNTLYLQMNSLRAEDTAVYYCARDKYDIPDAFDIWGQGTLVTVSS
VL: DIRMTQSPSSLSASVGDRVTITCRASQGISNDLAWYQQKPGKVPRLLIYATSTLQSGVPSRFSGSGSATDFTLTISSLQPEDVATYYCQQSYNAPITFGQGTRLEIK
notes: Fab from a human Fab phage library; also called 64R7 Fab
B4: antibody 133R0201 (antibody, V domains shown)
VH: QVQLVESGGGVVQPGRSLRLSCAASGFTFSSYAMHWVRQAPGKGLEWVAAIYPDSSNKYYADSVKGRFTISRDNSKNTLYLQMNSLRAEDTAVYYCARDKYDIPDAFDIWGQGTLVTVS
VL: DIRMTQSPSSLSASVGDRVTITCRASQGISNDLAWYQQKPGKVPRLLIYATSTLQSGVPSRFSGSGSATDFTLTISSLQPEDVATYYCQQSYNAPITFGQGTRLEIK
B5: 64R7 IgG2 antibody (antibody, V domains shown)
VH: QVQLVESGGGVVQPGRSLRLSCAASGFTFSSYAMHWVRQAPGKGLEWVAVISYDGSNKYYADSVKGRFTISRDNSKNTLYLQMNSLRAEDTAVYYCARDKYDIPDAFDIWGQGTLVTVSS
VL: DIRMTQSPSSLSASVGDRVTITCRASQGISNDLAWYQQKPGKVPRLLIYATSTLQSGVPSRFSGSGSATDFTLTISSLQPEDVATYYCQQSYNAPITFGQGTRLEIKR
notes: Human IgG2 / kappa, expressed in CHO cells; also called antibody 64R7; ATCC PTA-10470
B6: antibody 133R0205 (antibody, V domains shown)
VH: QVQLVESGGGVVQPGRSLRLSCAASGFTFSSYAMHWVRQAPGKGLEWVAAIYPASSNKYYADSVKGRFTISRDNSKNTLYLQMNSLRAEDTAVYYCARDKYDIPDAFDIWGQGTLVTVS
VL: DIRMTQSPSSLSASVGDRVTITCRASQGISNDLAWYQQKPGKVPRLLIYATSTLQSGVPSRFSGSGSATDFTLTISSLQPEDVATYYCQQSYNAPITFGQGTRLEIK
B7: antibody 133R0203 (antibody, V domains shown)
VH: QVQLVESGGGVVQPGRSLRLSCAASGFTFSSYAMHWVRQAPGKGLEWVAAISPEASNKYYADSVKGRFTISRDNSKNTLYLQMNSLRAEDTAVYYCARDKYDIPDAFDIWGQGTLVTVS
VL: DIRMTQSPSSLSASVGDRVTITCRASQGISNDLAWYQQKPGKVPRLLIYATSTLQSGVPSRFSGSGSATDFTLTISSLQPEDVATYYCQQSYNAPITFGQGTRLEIK

Tests used:
[1] = target: T1, human Jagged2, full-length, expressed on transfected cells (human, UniProt Q9Y219 24-1238); assay: flow cytometry on transfected HEK293 cells
T1 construct: Full-length cDNA transfected into HEK293 cells (FACS) or PC3 cells (two cell population reporter assay); also called hJagged2; hJag2

[2] = target: T2, mouse Jagged2 expressed on HEK293 cells (mouse, UniProt Q9QYE5 24-1247); assay: flow cytometry on transfected HEK293 cells
T2 construct: whole, on cells

[3] = target: T3, human Jagged2-Fc (extracellular domain of human Jagged2 fused to human Fc) (human, UniProt Q9Y219 27-1080); assay: SPR, Biacore 2000; Jagged protein on CM5 chip, antibody injected
T3 construct: also called hJag2; not shown: human Fc
Description: (§1) The KDs of 64M51, 64R7 and 64R1B antibodies were determined using a Biacore 2000 system from Biacore Lifescience (GE Healthcare). Recombinant Jagged proteins human Jagged1-Fc (hJag1), mouse Jagged1-His (mJag1), human Jagged2-Fc (hJag2) and mouse Jagged2-Fc (mJag2) were immobilized on a CM5 chip using standard amine-based chemistry (NHS/EDC). Antibodies were serially diluted in 2-fold increments from 100 to 1.0 nM in HBS-P (0.01M HEPES pH7.4, 0.15M NaCl, 0.005% v/v Surfactant P20) and were injected over the chip surface. Kinetic data were collected over time and were fit using the simultaneous global fit equation to yield affinity constants (KD values) for each antibody (Table 3).

[4] = target: T4, mouse Jagged2-Fc (extracellular domain of mouse Jagged2 fused to human Fc) (mouse, UniProt Q9QYE5 24-1082); assay: as above
T4 construct: extracellular domain; also called mJag2; not shown: human Fc
Description: as §1

[5] = target: T5, human Jagged1-Fc (extracellular domain of human Jagged1 fused to human Fc) (human, UniProt P78504 34-1067); assay: SPR, Biacore 2000; Jagged protein amine-coupled to CM5 chip, antibody injected 100-1.0 nM, global fit
T5 construct: also called hJag1; human Jagged1 ECD-Fc; not shown: human Fc
Description: as §1

[6] = target: T6, mouse Jagged1-His (extracellular domain of mouse Jagged1, aa 1-1060, with histidine tag) (mouse, UniProt Q9QXX0 34-1060); assay: as above
T6 construct: made in insect cells; also called mJag1; Mouse Jagged 1 ECD His-tagged
Description: as §1

[7] = target: T3, human Jagged2-Fc (extracellular domain …); assay: as above
Description: as §1

[8] = target: T4, mouse Jagged2-Fc (extracellular domain …); assay: as above
Description: as §1

[9] = target: T5, human Jagged1-Fc (extracellular domain …); assay: phage display output screened by ELISA on recombinant human Jagged1 ECD-Fc; 64R7 named as one of the Fabs in paragraph 226
Description: Phage display was used to identify specific Fabs that bind to the extracellular domain of human Jagged1. 2×10¹³ Fab displaying phage particles from a human Fab phage library were incubated with passively immobilized recombinant human Jagged1 ECD protein fused with a human Fc domain. The non-binding phage were washed off, phage bound to the Jagged1 protein were eluted with 100 mM glycine, […] pH2.2 and the elutant was neutralized with 1/10 volume of 2M Tris base. The eluted output phage were used to infect TG1 F+ bacteria and rescued with helper phage. The output of rescued round one served as the starting point for further selection rounds. The selections were continued to round 3, and then the output was screened in ELISA for Fabs specifically binding to recombinant human Jagged1 ECD-Fc protein. Several Fabs that specifically bound to human Jagged1 were identified.

[10] = target: T5, human Jagged1-Fc (extracellular domain …); assay: SPR, Biacore 2000; Jagged protein amine-coupled to CM5 chip, antibody injected 100-1.0 nM, global fit; remark: listed apart in the source
Description: as §1, with “antibodies 133R0201, 133R0203” for “64M51, 64R7”, “133R0205” for “64R1B antibodies”, “Healthcare) and compared to K, of antibody 64R7. As described above in Example 4, recombinant” for “Healthcare). Recombinant”, “(K,” for “(KD”, “5).” for “3).”

[11] = target: T6, mouse Jagged1-His (extracellular domain …); assay: as above; remark: listed apart in the source
Description: as §1, with “antibodies 133R0201, 133R0203” for “64M51, 64R7”, “133R0205” for “64R1B antibodies”, “Healthcare) and compared to K, of antibody 64R7. As described above in Example 4, recombinant” for “Healthcare). Recombinant”, “(K,” for “(KD”, “5).” for “3).”

[12] = target: T3, human Jagged2-Fc (extracellular domain …); assay: as above; remark: listed apart in the source
Description: as §1, with “antibodies 133R0201, 133R0203” for “64M51, 64R7”, “133R0205” for “64R1B antibodies”, “Healthcare) and compared to K, of antibody 64R7. As described above in Example 4, recombinant” for “Healthcare). Recombinant”, “(K,” for “(KD”, “5).” for “3).”

[13] = target: T4, mouse Jagged2-Fc (extracellular domain …); assay: as above; remark: listed apart in the source
Description: as §1, with “antibodies 133R0201, 133R0203” for “64M51, 64R7”, “133R0205” for “64R1B antibodies”, “Healthcare) and compared to K, of antibody 64R7. As described above in Example 4, recombinant” for “Healthcare). Recombinant”, “(K,” for “(KD”, “5).” for “3).”

[14] = target: T5, human Jagged1-Fc (extracellular domain …); assay: SPR, Biacore 2000; Jagged protein amine-coupled to CM5 chip, antibody injected 100-1.0 nM, global fit; Example 13 run (Table 5), compared with 133R0201, 133R0203, 133R0205; separate experiment from Table 3
Description: as §1, with “antibodies 133R0201, 133R0203” for “64M51, 64R7”, “133R0205” for “64R1B antibodies”, “Healthcare) and compared to K, of antibody 64R7. As described above in Example 4, recombinant” for “Healthcare). Recombinant”, “(K,” for “(KD”, “5).” for “3).”

T4 sequence (Q9QYE5 24-1082): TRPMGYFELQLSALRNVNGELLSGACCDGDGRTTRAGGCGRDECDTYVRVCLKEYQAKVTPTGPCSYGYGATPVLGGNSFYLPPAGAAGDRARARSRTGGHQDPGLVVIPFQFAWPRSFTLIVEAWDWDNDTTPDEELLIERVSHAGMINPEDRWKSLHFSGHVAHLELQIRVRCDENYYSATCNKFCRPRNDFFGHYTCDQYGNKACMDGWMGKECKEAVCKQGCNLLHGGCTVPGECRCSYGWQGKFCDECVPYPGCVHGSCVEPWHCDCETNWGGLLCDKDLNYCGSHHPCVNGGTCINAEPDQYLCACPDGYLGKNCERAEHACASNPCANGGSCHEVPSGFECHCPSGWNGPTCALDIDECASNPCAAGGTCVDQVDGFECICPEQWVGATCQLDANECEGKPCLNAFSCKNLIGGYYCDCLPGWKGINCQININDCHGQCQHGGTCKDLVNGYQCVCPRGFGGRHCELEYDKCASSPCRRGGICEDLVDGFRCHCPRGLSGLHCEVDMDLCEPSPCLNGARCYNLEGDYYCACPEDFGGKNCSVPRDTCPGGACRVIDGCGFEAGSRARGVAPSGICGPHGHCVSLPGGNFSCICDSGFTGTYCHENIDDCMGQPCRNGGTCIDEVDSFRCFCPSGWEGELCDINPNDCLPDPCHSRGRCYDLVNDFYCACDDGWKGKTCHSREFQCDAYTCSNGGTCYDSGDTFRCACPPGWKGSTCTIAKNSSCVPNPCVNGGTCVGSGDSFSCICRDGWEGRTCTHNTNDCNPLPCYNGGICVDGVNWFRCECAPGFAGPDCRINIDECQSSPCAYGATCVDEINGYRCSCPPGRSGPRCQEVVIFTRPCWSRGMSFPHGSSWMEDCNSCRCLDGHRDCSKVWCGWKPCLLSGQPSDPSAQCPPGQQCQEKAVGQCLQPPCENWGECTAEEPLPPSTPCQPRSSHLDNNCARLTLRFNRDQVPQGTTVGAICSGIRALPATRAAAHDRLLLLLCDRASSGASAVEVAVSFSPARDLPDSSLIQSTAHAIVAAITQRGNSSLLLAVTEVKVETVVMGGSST
T3 sequence (Q9Y219 27-1080 E501K): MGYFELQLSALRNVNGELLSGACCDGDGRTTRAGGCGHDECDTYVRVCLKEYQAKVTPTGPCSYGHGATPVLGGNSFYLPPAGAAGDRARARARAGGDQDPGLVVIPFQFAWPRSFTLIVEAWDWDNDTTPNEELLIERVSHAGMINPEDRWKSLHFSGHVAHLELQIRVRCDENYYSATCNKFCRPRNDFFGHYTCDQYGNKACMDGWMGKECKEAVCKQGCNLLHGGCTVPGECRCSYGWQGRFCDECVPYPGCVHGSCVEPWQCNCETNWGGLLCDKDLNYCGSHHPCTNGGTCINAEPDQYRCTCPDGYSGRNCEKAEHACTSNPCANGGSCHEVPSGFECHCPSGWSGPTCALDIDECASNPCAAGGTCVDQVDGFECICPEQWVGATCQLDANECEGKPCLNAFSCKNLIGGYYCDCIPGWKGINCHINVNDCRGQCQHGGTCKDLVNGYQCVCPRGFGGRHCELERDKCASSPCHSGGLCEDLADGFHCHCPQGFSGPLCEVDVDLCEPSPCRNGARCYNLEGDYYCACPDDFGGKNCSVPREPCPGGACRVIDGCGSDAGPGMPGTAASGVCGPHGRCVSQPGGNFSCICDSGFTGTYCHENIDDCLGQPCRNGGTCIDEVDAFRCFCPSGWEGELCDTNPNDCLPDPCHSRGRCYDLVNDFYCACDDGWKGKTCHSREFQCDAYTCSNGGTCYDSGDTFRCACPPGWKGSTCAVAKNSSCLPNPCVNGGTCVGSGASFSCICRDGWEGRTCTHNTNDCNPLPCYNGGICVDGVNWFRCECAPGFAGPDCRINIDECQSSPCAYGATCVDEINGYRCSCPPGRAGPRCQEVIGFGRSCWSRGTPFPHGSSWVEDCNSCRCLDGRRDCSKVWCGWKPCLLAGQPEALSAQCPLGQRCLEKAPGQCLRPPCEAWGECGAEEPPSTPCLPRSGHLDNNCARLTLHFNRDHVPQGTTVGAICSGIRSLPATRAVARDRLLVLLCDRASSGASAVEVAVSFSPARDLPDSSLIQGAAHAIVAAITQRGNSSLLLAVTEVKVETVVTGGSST
T1 sequence (Q9Y219 24-1238 E501K limits assumed): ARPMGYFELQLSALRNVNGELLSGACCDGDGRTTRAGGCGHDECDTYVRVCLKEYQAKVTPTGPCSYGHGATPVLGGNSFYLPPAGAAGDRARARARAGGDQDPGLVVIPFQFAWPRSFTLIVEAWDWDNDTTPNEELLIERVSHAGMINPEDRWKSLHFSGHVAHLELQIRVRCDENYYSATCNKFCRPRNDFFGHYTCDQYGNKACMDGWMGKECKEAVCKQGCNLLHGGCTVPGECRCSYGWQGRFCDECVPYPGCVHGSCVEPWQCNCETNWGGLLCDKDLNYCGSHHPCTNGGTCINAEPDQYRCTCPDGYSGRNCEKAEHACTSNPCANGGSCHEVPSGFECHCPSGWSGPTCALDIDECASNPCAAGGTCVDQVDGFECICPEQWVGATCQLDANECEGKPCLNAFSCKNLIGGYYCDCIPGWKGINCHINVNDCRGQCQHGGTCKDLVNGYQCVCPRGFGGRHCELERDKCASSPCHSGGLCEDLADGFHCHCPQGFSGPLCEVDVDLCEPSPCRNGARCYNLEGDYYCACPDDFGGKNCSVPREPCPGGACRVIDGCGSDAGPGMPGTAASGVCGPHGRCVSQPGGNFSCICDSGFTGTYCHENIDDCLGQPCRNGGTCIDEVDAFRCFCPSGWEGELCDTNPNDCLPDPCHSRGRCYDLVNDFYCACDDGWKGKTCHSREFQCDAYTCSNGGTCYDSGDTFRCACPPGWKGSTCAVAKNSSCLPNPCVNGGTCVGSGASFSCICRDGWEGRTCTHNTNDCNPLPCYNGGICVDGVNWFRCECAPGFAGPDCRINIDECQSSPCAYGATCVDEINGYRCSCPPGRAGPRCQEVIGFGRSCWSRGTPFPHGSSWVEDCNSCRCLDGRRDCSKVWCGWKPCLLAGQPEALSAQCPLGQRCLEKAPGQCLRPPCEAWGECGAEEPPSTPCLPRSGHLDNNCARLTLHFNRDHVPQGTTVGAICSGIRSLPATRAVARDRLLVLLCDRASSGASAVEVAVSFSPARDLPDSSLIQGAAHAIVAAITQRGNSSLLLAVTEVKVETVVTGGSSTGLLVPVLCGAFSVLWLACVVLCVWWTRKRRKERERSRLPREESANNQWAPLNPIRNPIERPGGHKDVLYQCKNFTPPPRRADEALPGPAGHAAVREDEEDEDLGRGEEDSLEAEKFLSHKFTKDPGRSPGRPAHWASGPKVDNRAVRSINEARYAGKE
T2 sequence (Q9QYE5 24-1247): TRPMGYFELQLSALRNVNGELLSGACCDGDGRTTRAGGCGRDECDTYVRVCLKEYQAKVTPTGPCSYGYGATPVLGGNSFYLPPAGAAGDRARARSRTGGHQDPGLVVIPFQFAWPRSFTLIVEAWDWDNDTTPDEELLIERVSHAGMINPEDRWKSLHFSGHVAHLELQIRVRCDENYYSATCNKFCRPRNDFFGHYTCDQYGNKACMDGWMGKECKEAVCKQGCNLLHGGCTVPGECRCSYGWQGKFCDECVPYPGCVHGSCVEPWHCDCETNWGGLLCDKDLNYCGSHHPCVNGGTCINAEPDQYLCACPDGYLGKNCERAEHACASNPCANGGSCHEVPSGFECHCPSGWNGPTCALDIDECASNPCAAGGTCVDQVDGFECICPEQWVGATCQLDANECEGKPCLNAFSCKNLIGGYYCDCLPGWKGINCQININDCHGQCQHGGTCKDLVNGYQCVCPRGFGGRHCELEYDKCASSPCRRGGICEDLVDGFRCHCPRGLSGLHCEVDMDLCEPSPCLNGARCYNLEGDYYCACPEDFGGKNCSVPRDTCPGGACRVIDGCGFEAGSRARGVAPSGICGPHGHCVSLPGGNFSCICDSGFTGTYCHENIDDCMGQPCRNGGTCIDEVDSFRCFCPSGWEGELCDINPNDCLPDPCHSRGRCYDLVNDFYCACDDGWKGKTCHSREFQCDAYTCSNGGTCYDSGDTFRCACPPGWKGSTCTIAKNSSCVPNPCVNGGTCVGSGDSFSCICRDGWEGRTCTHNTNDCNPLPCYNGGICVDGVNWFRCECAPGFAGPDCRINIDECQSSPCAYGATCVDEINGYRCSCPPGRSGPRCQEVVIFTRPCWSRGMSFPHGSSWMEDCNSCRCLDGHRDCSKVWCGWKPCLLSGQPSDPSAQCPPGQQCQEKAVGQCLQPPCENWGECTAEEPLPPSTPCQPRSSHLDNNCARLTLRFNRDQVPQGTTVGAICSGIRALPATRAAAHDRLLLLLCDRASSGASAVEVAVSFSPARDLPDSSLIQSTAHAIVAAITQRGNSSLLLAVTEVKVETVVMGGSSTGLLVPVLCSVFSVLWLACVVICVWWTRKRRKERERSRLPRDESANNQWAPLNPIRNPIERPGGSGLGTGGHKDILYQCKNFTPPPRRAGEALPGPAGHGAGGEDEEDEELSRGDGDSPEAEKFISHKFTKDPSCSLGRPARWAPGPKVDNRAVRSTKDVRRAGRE

| Binder | Kd [5] | Kd [6] | Kd [10] | Kd [11] | Kd [12] | Kd [13] | further results |
| --- | --- | --- | --- | --- | --- | --- | --- |
| B1 | 0.61 nM | 0.82 nM | – | – | – | – | binding result [1]: no binding (tested: 10 µg/ml); binding result [2]: no binding (tested: 10 µg/ml); binding result [3]: no binding (tested: No binding detected at 100 nM); binding result [4]: no binding (tested: No binding detected at 100 nM) |
| B2 | 30 nM | 33 nM | – | – | – | – | Kd [7]: 6.2 nM; Kd [8]: 7.9 nM |
| B3 | – | – | – | – | – | – | binding result [9]: binds |
| B4 | – | – | 0.76 nM | 0.8 nM | 2.9 nM | 3.2 nM | – |
| B5 | 5.9 nM | 10.5 nM | – | 4.8 nM | 10 nM | 9.6 nM | Kd [7]: 8.3 nM; Kd [8]: 20.6 nM; Kd [14]: 1.7 nM |
| B6 | – | – | 1.2 nM | 1.5 nM | 5.8 nM | 4.8 nM | – |
| B7 | – | – | 1.4 nM | 1.6 nM | 3.7 nM | 3.8 nM | – |
